Source: patent US20230036060A1 (University of California, published 2023)

T1: NLS-pMag-CreC
T1 chain: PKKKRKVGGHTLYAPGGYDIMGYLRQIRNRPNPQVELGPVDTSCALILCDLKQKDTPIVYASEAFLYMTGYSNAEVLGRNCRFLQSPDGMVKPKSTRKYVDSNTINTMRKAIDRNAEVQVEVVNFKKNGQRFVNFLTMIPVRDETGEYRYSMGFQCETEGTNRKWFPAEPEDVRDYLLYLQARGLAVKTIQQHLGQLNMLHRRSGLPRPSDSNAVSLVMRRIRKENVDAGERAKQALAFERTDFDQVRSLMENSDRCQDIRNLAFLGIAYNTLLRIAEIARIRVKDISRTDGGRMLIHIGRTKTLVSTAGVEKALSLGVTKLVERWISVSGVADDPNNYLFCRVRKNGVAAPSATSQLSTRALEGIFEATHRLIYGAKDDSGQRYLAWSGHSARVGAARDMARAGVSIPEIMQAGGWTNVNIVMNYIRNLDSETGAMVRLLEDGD

B1: myc-α-CD38-Receptor (receptor)
chain: SEQKLISEEDLDIQLTQSSSSFSVSLGDRVTITCKASEDIYNRLAWYQQKPGNAPRLLISGATSLETGVPSRFSGSGSGKDYTLSITSLQTEDVATYYCQQYWSTPTFGGGTKLEIKRADAAPTVSIFPPSGGGGSGGGGSGGGGSGGGGSQVQLKQSGPSLVQPSQRLSITCTVSGFSLISYGVHWVRQSPGKGLEWLGVIWRGGSTDYNAAFMSRLSITKDNSKSQVFFKMNSLQADDTAIYFCAKTLITTGYAMDYWGQGTSVTVSSAAAIEVMYPPPYLDNEKSNGTIIHVKGKHLCPSPLFPGPSKPFWVLVVVGGVLACYSLLVTVAFIIFWVRSKRS
notes: Non-signalling anchoring receptor with myc tag, expressed on Jurkat T cells; also called c-myc-tagged α-CD38 Receptor
B2: ERT2-CreN-nMag (other)
chain: MAGDMRAANLWPSPLMIKRSKKNSLALSLTADQMVSALLDAEPPILYSEYDPTRPFSEASMMGLLTNLADRELVHMINWAKRVPGFVDLTLHDQVHLLECAWLEILMIGLVWRSMEHPVKLLFAPNLLLDRNQGKCVEGMVEIFDMLLATSSRFRMMNLQGEEFVCLKSIILLNSGVYTFLSSTLKSLEEKDHIHRVLDKITDTLIHLMAKAGLTLQQQHQRLAQLLLILSHIRHMSNKGMEHLYSMKCKNVVPLYDLLLEAADAHRLHAPTSRGGASVEETDQSHLATAGSTSSHSLQKYYITGEAEGFPATAVDNLLTVHQNLPALPVDATSDEVRKNLMDMFRDRQAFSEHTWKMLLSVCRSWAAWCKLNGTHTLYAPGGYDIMGYLDQIGNRPNPQVELGPVDTSCALILCDLKQKDTPIVYASEAFLYMTGYSNAEVLGRNCRFLQSPDGMVKPKSTRKYVDSNTINTMRKAIDRNAEVQVEVVNFKKNGQRFVNFLTMIPVRDETGEYRYSMGFQCETE

Legend:
[1] = target: T2, CD38 on CD38+ Toledo Target cells (UniProt P28907 1-300, limits assumed); assay: flow cytometry, Jurkat T cells carrying the receptor with Toledo Target cells
T2 construct: whole, on cells

[2] = target: T1, NLS-pMag-CreC; assay: cell-based or functional assay

Row | Binder | binding result [1] | fold increase in recombined TamPA-Cre+ CAR Reporter Jurkat T cells, Light+4-OHT against Dark+4-OHT [2]
1 | B1 | binds | –
2 | B2 | – | 27.1 fold
